Substrate in series [1]: CCC(C)[C@H](NC(=O)[C@H](Cc1ccc(O)cc1)NC(=O)[C@@H](CCC(N)=O)NC(=O)[C@@H]1CCCN1C(=O)[C@@H](C)NC(=O)[C@@H](CCC(=O)O)NC(=O)[C@H](NC(=O)[C@H](Cc1ccc(O)cc1)NC(=O)[C@H](CCCN)NC(=O)[C@H](CCC(=O)O)NC(C)=O)C(C)O)C(=O)Sc1ccccc1
The series is described as follows: cyclization kinetics with fengycin-peptide cyclase. It is filed as biochemical. The settings on record: other: cyclization reaction, Lineweaver-Burk plot, 25 mM HEPES, 50 mM NaCl, pH 7, room temperature. The procedure: The purified substrate with the leaving group according to the present invention is then incubated with the respective peptide cyclase in the ratio of 1 (enzyme): 100 (substrate) in 25 mM HEPES, 50 mM NaCl at pH 7 and room temperature for 30-60 minutes. The production of the HEPES solution is known to persons skilled in the art and was described in J. Sambrook, E. F. Fritsch and T. Maniatis: Molecular Cloning: A Laboratory Manual Vol. I-III, Cold Spring Harbor Laboratory Press, 1982. The identification and quantification of the reaction product is carried out by means of analytical HPLC.
The cyclization of the linear fengycin-thiophenol substrate is carried out in an aqueous cyclization buffer comprised of 2-[4-(2-hydroxyethyl)-1-piperazinyl]-ethane sulfonic acid (HEPES, 25 mM) and sodium chloride (NaCl, 50 mM) at pH 7 in a total volume of 50 μL. The substrate concentration is 100 μM for standard cyclization reactions. The cyclization reaction is initiated by the addition of recombinant fengycin TE at an end concentration of 5 μM and stopped by the addition of 35 μL of 4% trifluoroacetic acid (TFA) in water after 4 hours. […]
With this measurement, the linear range for further kinetic studies is determined. […]

Substrate in series [2]: CC(C)C[C@H](NC(=O)[C@@H](CC(=O)O)NC(=O)[C@H](NC(=O)[C@H](CN)NC(=O)[C@@H](CC(C)C)NC(=O)[C@@H](CCC(=O)O)NC(=O)CC(C)O)C(C)C)C(=O)N[C@H](CC(C)C)C(=O)Sc1ccccc1
The series is described as follows: cyclization kinetics with surfactin-peptide cyclase. The settings on record: other: cyclization reaction; pH 7.0; 40.0 °C. It counts as biochemical. The procedure: […] The production of the HEPES solution is known to persons skilled in the art and was described in J. Sambrook, E. F. Fritsch and T. Maniatis: Molecular Cloning: A Laboratory Manual Vol. I-III, Cold Spring Harbor Laboratory Press, 1982. The identification and quantification of the reaction product is carried out by means of analytical HPLC.
With this measurement, the linear range for further kinetic studies is determined. The reactions are stopped by the addition of 35 μL TFA (4% in water) and examined by analytic HPLC with a Nucleodur C18 column (Macherey and Nagel, 250/3, pore diameter: 100 Å, particle size: 3 μm) with the following gradient: 0-35 min, 30-60% acetonitrile/0.1% TFA in water/0.1% TFA; 0.4 mL/min, 40° C. Kinetic examinations are carried out at different points in time at substrate concentrations of 50 μM up to 1000 μm and the kinetic parameters KM and kcat are taken from the Lineweaver-Burk plot. For fengycin-thiophenol, a KM of 461 μm and a kcat of 0.33 min^−1 result from the cyclization reaction.
In the case of surfactin-peptide cyclase, kinetic reference data with a SNAC-substrate exists. In the case of surfactin-thiophenol, a KM of 126 μm and a kcat of 5.6 min^−1 are determined for the cyclization reaction, which corresponds to a kcat/KM value of 0.04 μm^−1 min^−1. Compared with that is the kinetic efficiency of surfactin-SNAC, represented by the kcat/KM value 0.0029 μm^−1 min^−1, 14 times less than with surfactin-thiophenol.

B1: recombinated fengycin-peptide cyclase (Bacillus subtilis subsp. subtilis str. 168) (protein)
chain: QNLFCFPPISGFGIYFKDLALLLNEKAAVYGFHFIEQDTRIEQYVNCMTDIQPEGPYVLLGYSAGGNLAFEVAQAMERKGLEVSDFIIVDAYLKEQPLPIDTGNDESAAYLPEAVREKVMKKKRNYQEYWAQLLNEGHIKASIHFIEAGIHPETSGHTGLTKWEGACGNYSEYTGFGAHKDMLEGTYAEKNADIILDILEKITSNQ
notes: recombinant fengycin TE
In general, Km refers to the concentration of substrate that gives half-maximal velocity. The kcat is the number of substrate molecules converted per active site and unit of time at saturation. Turning to B1, in series [1], the Km worked out at 461 µM and the kcat was 0.0055 s⁻¹.

B2: surfactin-peptide cyclase (Bacillus subtilis subsp. subtilis str. 168) (protein)
chain: QIIFAFPPVLGYGLMYQNLSSRLPSYKLCAFDFIEEEDRLDRYADLIQKLQPEGPLTLFGYSAGCSLAFEAAKKLEEQGRIVQRIIMVDSYKKQGVSDLDGRTVESDVEALMNVNRDNEALNSEAVKHGLKQKTHAFYSYYVNLISTGQVKADIDLLTSGADFDMPEWLASWEEATTGVYRVKRGFGTHAEMLQGETLDRNAEILLEFLNTQT
notes: purified, isolated thioesterase domains or peptide cyclases from NRPS or PKS systems
As to B2, in series [2], the Km stood at 126 µM, the kcat stood at 0.0933 s⁻¹ and the kcat/Km stood at 0.04 μm^−1 min^−1.

The record behind these values is US8063181B2, “Method for the production of cyclic molecules” (ZYRUS Beteiligungsgesellschaft mbH & Co. Patent I KG, priority 2003, dated 2011).
